Results on 1 protein are retold here after article PMC7840982, “Purification of Crimean–Congo hemorrhagic fever virus nucleoprotein and its utility for serological diagnosis” (Scientific Reports, 2021).

The data set deals with the molecule itself. Put plainly: negative-stain transmission electron microscopy.

B1: Crimean–Congo hemorrhagic fever virus nucleoprotein (strain IbAr10200), recombinant, untagged (natural protein)
chain: MENKIEVNNKDEMNRWFEEFKKGNGLVDTFTNSYSFCESVPNLDRFVFQMASATDDAQKDSIYASALVEATKFCAPIYECAWVSSTGIVKKGLEWFEKNAGTIKSWDESYTELKVDVPKIEQLTGYQQAALKWRKDIGFRVNANTAALSNKVLAEYKVPGEIVMSVKEMLSDMIRRRNLILNRGGDENPRGPVSHEHVDWCREFVKGKYIMAFNPPWGDINKSGRSGIALVATGLAKLAETEGKGIFDEAKKTVEALNGYLDKHKDEVDRASADSMITNLLKHIAKAQELYKNSSALRAQSAQIDTAFSSYYWLYKAGVTPETFPTVSQFLFELGKQPRGTKKMKKALLSTPMKWGKKLYELFADDSFQQNRIYMHPAVLTAGRISEMGVCFGTIPVANPDDAAQGSGHTKSILNLRTNTETNNPCAKTIVKLFEVQKTGFNIQDMDIVASEHLLHQSLVGKQSPFQNAYNVKGNATSANII
notes: also called CCHFV NP; NP
Turning to B1, the binding result is on record as “binds”.
